In patent EP2908837B1 (Vect-Horus, dated 2014):

B1: peptide SEQ ID NO: 1, (D)-Cys-Met-Thz-Arg-Leu-Arg-Gly-Pen (peptide)
peptide: XMXRLRGX
modifications: (D)-Cys at 1, Thz (thiazolidine-4-carboxylic acid) at 3, Pen (penicillamine) at 8; cyclised by a disulfide bridge
B2: hLDLR fused to GFP, on CHO-hLDLR-GFP cells (receptor)
chain: not shown
notes: whole, on cells; also called CHO-LDLR-GFP; not shown: GFP fused in the C-term position

How the values were obtained:
[1] = biological target: mouse LDLR (in vivo, wild-type against LDLR -/- mice) (mouse, UniProt P35951 22-862); assay: cell-based or functional assay
Chain of mouse LDLR (in vivo, wild-type against LDLR -/- mice) (P35951 22-862): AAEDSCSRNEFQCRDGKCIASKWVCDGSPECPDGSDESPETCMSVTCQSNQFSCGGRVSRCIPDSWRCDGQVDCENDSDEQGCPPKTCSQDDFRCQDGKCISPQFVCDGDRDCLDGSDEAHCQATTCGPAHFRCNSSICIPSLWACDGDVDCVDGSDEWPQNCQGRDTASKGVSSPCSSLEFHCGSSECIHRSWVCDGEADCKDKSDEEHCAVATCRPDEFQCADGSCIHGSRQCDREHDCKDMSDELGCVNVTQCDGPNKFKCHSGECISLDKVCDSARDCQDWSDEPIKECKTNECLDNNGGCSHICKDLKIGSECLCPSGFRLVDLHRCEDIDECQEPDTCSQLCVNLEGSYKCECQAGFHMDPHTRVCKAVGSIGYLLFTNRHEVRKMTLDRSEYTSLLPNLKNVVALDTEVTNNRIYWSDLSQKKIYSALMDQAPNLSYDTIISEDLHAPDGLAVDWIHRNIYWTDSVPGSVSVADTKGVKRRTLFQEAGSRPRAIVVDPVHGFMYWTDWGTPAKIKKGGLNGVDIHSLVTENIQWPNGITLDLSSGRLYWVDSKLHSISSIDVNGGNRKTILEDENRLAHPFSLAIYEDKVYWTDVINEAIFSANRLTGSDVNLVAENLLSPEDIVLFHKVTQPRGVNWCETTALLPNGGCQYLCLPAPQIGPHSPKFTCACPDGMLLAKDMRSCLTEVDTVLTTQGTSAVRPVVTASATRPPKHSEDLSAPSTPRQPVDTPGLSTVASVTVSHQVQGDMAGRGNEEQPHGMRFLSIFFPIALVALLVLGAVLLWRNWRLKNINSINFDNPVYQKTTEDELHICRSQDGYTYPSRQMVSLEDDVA

[2] = biological target: T1, Fc alone (human Fc fragment of an IgG1 antibody) (human, UniProt P01857-1 104-330 = IgG part, limits assumed); assay: pulse-chase immunocytochemistry on CHO-hLDLR-GFP cells, anti-human Fc antibody Alexa 594
T1 construct: domain: Fc fragment; Negative control

Binder | decrease in peptide concentration in the adrenal glands of LDLR-/- (KO) mice compared to wild-type mice, tritium-labelled peptide, 10 min after i.v. injection [1] [fold] | decrease in peptide concentration in the intestine of LDLR-/- (KO) mice compared to wild-type mice, tritium-labelled peptide, 10 min after i.v. injection [1] [fold] | decrease in peptide concentration in the liver of LDLR-/- (KO) mice compared to wild-type mice, tritium-labelled peptide, 10 min after i.v. injection [1] [fold] | binding result [2]
B1 | ~3.4 | ~3.6 | ~4 | 
B2 |  |  |  | no binding (tested: 5 nM)
